Here are results for two variants from IntAct's records for PubMed 15467741.

The chains are these.
B1: Merlin (Homo sapiens), P35240-1 (parent)
chain: MAGAIASRMSFSSLKRKQPKTFTVRIVTMDAEMEFNCEMKWKGKDLFDLVCRTLGLRETWFFGLQYTIKDTVAWLKMDKKVLDHDVSKEEPVTFHFLAKFYPENAEEELVQEITQHLFFLQVKKQILDEKIYCPPEASVLLASYAVQAKYGDYDPSVHKRGFLAQEELLPKRVINLYQMTPEMWEERITAWYAEHRGRARDEAEMEYLKIAQDLEMYGVNYFAIRNKKGTELLLGVDALGLHIYDPENRLTPKISFPWNEIRNISYSDKEFTIKPLDKKIDVFKFNSSKLRVNKLILQLCIGNHDLFMRRRKADSLEVQQMKAQAREEKARKQMERQRLAREKQMREEAERTRDELERRLLQMKEEATMANEALMRSEETADLLAEKAQITEEEAKLLAQKAAEAEQEMQRIKATAIRTEEEKRLMEQKVLEAEVLALKMAEESERRAKEADQLKQDLQEAREAERRAKQKLLEIATKPTYPPMNPIPAPLPPDIPSFNLIGDSLSFDFKDTDMKRLSMEIEKEKVEYMEKSKHLQEQLNELKTEIEALKLKERETALDILHNENSDRGGSSKHNTIKKLTLQSAKSRVAFFEEL
partner: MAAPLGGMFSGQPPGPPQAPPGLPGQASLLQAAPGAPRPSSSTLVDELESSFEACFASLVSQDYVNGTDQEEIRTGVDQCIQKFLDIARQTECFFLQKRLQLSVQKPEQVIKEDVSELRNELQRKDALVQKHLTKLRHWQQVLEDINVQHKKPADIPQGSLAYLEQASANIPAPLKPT
B2: Merlin (Homo sapiens), P35240-3 (parent)
chain: MAGAIASRMSFSSLKRKQPKTFTVRIVTMDAEMEFNCEMKWKGKDLFDLVCRTLGLRETWFFGLQYTIKDTVAWLKMDKKVLDHDVSKEEPVTFHFLAKFYPENAEEELVQEITQHLFFLQVKKQILDEKIYCPPEASVLLASYAVQAKYGDYDPSVHKRGFLAQEELLPKRVINLYQMTPEMWEERITAWYAEHRGRARDEAEMEYLKIAQDLEMYGVNYFAIRNKKGTELLLGVDALGLHIYDPENRLTPKISFPWNEIRNISYSDKEFTIKPLDKKIDVFKFNSSKLRVNKLILQLCIGNHDLFMRRRKADSLEVQQMKAQAREEKARKQMERQRLAREKQMREEAERTRDELERRLLQMKEEATMANEALMRSEETADLLAEKAQITEEEAKLLAQKAAEAEQEMQRIKATAIRTEEEKRLMEQKVLEAEVLALKMAEESERRAKEADQLKQDLQEAREAERRAKQKLLEIATKPTYPPMNPIPAPLPPDIPSFNLIGDSLSFDFKDTDMKRLSMEIEKEKVEYMEKSKHLQEQLNELKTEIEALKLKERETALDILHNENSDRGGSSKHNTIKKPQAQGRRPICI
partner: B1 partner

In one assay the parent is B1. The settings on record: with med28_human MED28, Q9H204.
On to S518A, for which the “effect of a mutation on the interaction” value is “increasing interaction”.

Variants of B2 are the subject of the next assay. The following applies: with med28_human MED28, Q9H204.
Turning to S518A, the “effect of a mutation on the interaction” value is “increasing interaction”.
